We go through two molecules from article PMC12755392, “p62 sorts Lupus La and selected microRNAs into breast cancer-derived exosomes”.

The target in this data set is T1, La 1-408 (full-length Lupus La) (Homo sapiens, UniProt P05455 1-408).
T1 sequence: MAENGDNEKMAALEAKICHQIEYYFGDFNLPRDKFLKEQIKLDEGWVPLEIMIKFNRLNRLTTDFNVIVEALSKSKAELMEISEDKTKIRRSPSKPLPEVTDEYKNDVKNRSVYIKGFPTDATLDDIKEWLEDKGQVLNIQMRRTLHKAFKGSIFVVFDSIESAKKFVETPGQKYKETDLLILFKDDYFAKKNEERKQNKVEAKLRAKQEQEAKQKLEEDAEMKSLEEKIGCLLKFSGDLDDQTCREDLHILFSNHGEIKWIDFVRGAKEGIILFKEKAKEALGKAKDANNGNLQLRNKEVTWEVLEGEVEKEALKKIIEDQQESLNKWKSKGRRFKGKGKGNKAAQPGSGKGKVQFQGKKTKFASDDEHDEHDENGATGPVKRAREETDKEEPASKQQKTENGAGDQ
Description: EMSA; EMSA: 1 nM miRNA, 25 mM Tris-HCl pH 8.0, 100 mM KCl, 1.5 mM MgCl2, 1 mM DTT, 0.05% NP-40, 5% glycerol, 50 ug/ml heparin, 1 U/ul RiboLock; 30 C 30 min then 4 C 10 min; Hill fit. The conditions noted are these: protein: recombinant; tags: C-terminal Nluc-FLAG-His6; label: 5' IRD800; single strand. For orientation: In EMSA bound probe runs differently from free probe, usually more slowly.

As usually defined, the Kd is the constant that tells how readily two partners part at equilibrium.

Consider UGGAGUGUGACAAUGGUGUUUG (ssRNA) [miR-122 (hsa-miR-122-5p?)], for which the Kd is 14.1 nM.
Regarding UGAUAUGUUUGAUAUAUUAGGU (ssRNA) [miR-190], the Kd stood at 1150 nM.
